Reference: the supplement of paper PMC10126150
± gives the standard deviation of the averaged measurements.

Test system: ATP
Experiment: switch fluorescence ratio, 500 uM ATP over buffer (Cy3 cluster intensity, sum of 5 cycles each) (fold (ratio)); higher = stronger signal-on switching upon ATP binding; sequences stand for … in TCGTCGGCAGCGTCAGATGTGTATAAGAGACAGTTTTTTTTTTTTTTTTTTTTTTTTT…TC
Details: aptamer strand: ATP DNA aptamer (quencher-CACCTGGGGGAGTATTGCGGAGGAAGG + anchor), 100 nM annealed; ATP concentration: 500 uM
Summary of the method: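 Exposure to 500 uM ATP lasted 15 min at 22 °C before imaging, and a selection-buffer image was taken beforehand, for Cy3-labelled switching-strand clusters on a modified Illumina MiSeq flow-cell annealed to 100 nM quencher-labelled ATP aptamer. Five buffer/ATP cycles were run with NaOH stripping and re-annealing between them. The fluorescence ratio per cluster is summed target-cycle over summed buffer-cycle Cy3 intensity, averaged per switch-domain sequence. Clusters outside 100-1000 RFU were excluded.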

Row | Sequence | switch fluorescence ratio
1 | GCTGGGGACT | 0.996 ± 0.02
2 | GCTGGGGCAG | 1.016 ± 0.01
3 | GCTGGGGGCC | 0.981 ± 0.028
4 | GCTGGGGGGG | 1.02 ± 0.037
5 | GCTGGTCATG | 0.989 ± 0.018
6 | GCTGGTGCGA | 1.005 ± 0.0099
7 | GCTGGTGCTT | 0.974 ± 0.022
8 | GCTGGTTGA | 1.01 ± 0.014
9 | GCTGTCCGGA | 1.048 ± 0.0054
10 | GCTGTGATA | 0.976 ± 0.019
11 | GCTGTGCACG | 1.02 ± 0.02
12 | GCTGTGCGGG | 0.95 ± 0.018
13 | GCTGTGGGCA | 0.977 ± 0.02
14 | GCTGTGTAGG | 0.994 ± 0.013
15 | GCTGTTGCTG | 1 ± 0.035
16 | GCTTAAATCT | 1.01 ± 0.029
17 | GCTTAATACT | 1.37 ± 0.054
18 | GCTTACGGGA | 1.028 ± 0.0016
19 | GCTTAGAGGA | 1 ± 0.03
20 | GCTTATCTTT | 0.978 ± 0.051
21 | GCTTATGAAG | 1.02 ± 0.02
22 | GCTTATTATT | 1.023 ± 0.0026

Row | Sequence | switch fluorescence ratio
23 | GCTTCAAGGC | 1.03 ± 0.045
24 | GCTTCAATGT | 1.03 ± 0.067
25 | GCTTCCTGTG | 1.49 ± 0.036
26 | GCTTCGGAGA | 1.029 ± 0.0017
27 | GCTTCTAGCT | 0.969 ± 0.011
28 | GCTTCTGGCA | 0.999 ± 0.023
29 | GCTTGAGGCT | 0.959 ± 0.06
30 | GCTTGCTCAT | 1.018 ± 0.0094
31 | GCTTGGAAGC | 0.9909 ± 0.0089
32 | GCTTGTACGT | 1.021 ± 0.0096
33 | GCTTGTAGCT | 1.02 ± 0.0095
34 | GCTTGTAGGC | 0.994 ± 0.017
35 | GCTTGTAGGG | 0.969 ± 0.011
36 | GCTTGTATGA | 1.013 ± 0.0032
37 | GCTTGTTGTA | 0.998 ± 0.015
38 | GCTTTAACAC | 1.03 ± 0.014
39 | GCTTTATTAA | 1 ± 0.017
40 | GCTTTATTTT | 1.09 ± 0.19
41 | GCTTTCTGCG | 1.05 ± 0.042
42 | GCTTTGAATT | 0.985 ± 0.017
43 | GCTTTGCGCT | 0.988 ± 0.015
44 | GCTTTGGGGA | 1 ± 0.025

Row | Sequence | switch fluorescence ratio
45 | GCTTTGTTTT | 1.12 ± 0.3
46 | GCTTTTAGTG | 1 ± 0.039
47 | GCTTTTGGGC | 0.963 ± 0.023
48 | GCTTTTTAAA | 0.95 ± 0.016
49 | GCTTTTTGGG | 0.963 ± 0.039
50 | GCTTTTTTGA | 0.993 ± 0.042
51 | GGAAAAATCG | 1.013 ± 0.0051
52 | GGAAAAATGA | 1 ± 0.034
53 | GGAAAAATGT | 1.01 ± 0.025
54 | GGAAAACCAG | 0.982 ± 0.048
55 | GGAAAAGTTC | 1 ± 0.058
56 | GGAAACCATT | 1.03 ± 0.024
57 | GGAAACTTTG | 1.04 ± 0.11
58 | GGAAAGACGA | 1.01 ± 0.016
59 | GGAAAGGTTT | 1.01 ± 0.064
60 | GGAAAGTGAT | 1.2 ± 0.26
61 | GGAAATTGTA | 0.986 ± 0.0059
62 | GGAACAGCTT | 0.983 ± 0.017
63 | GGAACGTATT | 1.0119 ± 8.1e-05
64 | GGAAGCGTTC | 1.03 ± 0.04
65 | GGAAGGCGGG | 1.11 ± 0.16
66 | GGAAGTGGGC | 1.0283 ± 0.00079

Row | Sequence | switch fluorescence ratio
67 | GGAAGTTAGT | 0.98253 ± 0.00016
68 | GGAATAAAGT | 0.996 ± 0.021
69 | GGAATACTAG | 1.14 ± 0.053
70 | GGAATACTTT | 1.01 ± 0.028
71 | GGAATAGAGT | 1.02 ± 0.021
72 | GGAATCAGGG | 0.99 ± 0.07
73 | GGAATCCATG | 0.977 ± 0.0013
74 | GGAATGAAGT | 1.07 ± 0.049
75 | GGAATGCCGG | 1.02 ± 0.021
76 | GGAATGGTTT | 0.987 ± 0.064
77 | GGAATGTAGG | 0.99 ± 0.027
78 | GGAATGTTGG | 0.991 ± 0.032
79 | GGAATGTTTG | 0.977 ± 0.035
80 | GGAATTAAAT | 0.985 ± 0.027
81 | GGAATTATGA | 0.995 ± 0.024
82 | GGAATTATGT | 1.02 ± 0.041
83 | GGAATTCGAT | 1.004 ± 0.006
84 | GGAATTGGCG | 1.03 ± 0.023
85 | GGAATTGGGT | 0.99 ± 0.044
